In the Human Domainome abundance scans (Beltran et al. 2025):
± gives the uncertainty stated by the source.

B1: Transcription elongation regulator 1-like protein, residues 448 to 504; numbered along this chain, Q5VWI1 (parent)
chain: LPLEERVTHFRDMLLERGVSAFSTWEKELHKIVFDPRYLLLNSEERKQIFEQFVKTR

Variants of: B1
Assay: abundance fitness (aPCA) (normalised: wild type 0, dead -1); higher = more abundant; growth selection in yeast, the domain comes from the species named
Conditions: Homo sapiens

Row | Variant | abundance fitness
1 | LPLEERVTHFRDMLLERGSSAFSTWEKELHKIVFDPRYLLLNSEERKQIFEQFVKTR [V19S] | -0.805 ± 0.25
2 | LPLEERVTHFRDMLLERGISAFSTWEKELHKIVFDPRYLLLNSEERKQIFEQFVKTR [V19I] | -0.528 ± 0.15
3 | LPLEERVTHFRDMLLERGASAFSTWEKELHKIVFDPRYLLLNSEERKQIFEQFVKTR [V19A] | -0.709 ± 0.22
4 | LPLEERVTHFRDMLLERGKSAFSTWEKELHKIVFDPRYLLLNSEERKQIFEQFVKTR [V19K] | -0.376 ± 0.29
5 | LPLEERVTHFRDMLLERGRSAFSTWEKELHKIVFDPRYLLLNSEERKQIFEQFVKTR [V19R] | -0.916 ± 0.2
6 | LPLEERVTHFRDMLLERGESAFSTWEKELHKIVFDPRYLLLNSEERKQIFEQFVKTR [V19E] | -0.893 ± 0.14
7 | LPLEERVTHFRDMLLERGQSAFSTWEKELHKIVFDPRYLLLNSEERKQIFEQFVKTR [V19Q] | -0.625 ± 0.4
8 | LPLEERVTHFRDMLLERGVSAGSTWEKELHKIVFDPRYLLLNSEERKQIFEQFVKTR [F22G] | 0.04 ± 0.069
9 | LPLEERVTHFRDMLLERGVSANSTWEKELHKIVFDPRYLLLNSEERKQIFEQFVKTR [F22N] | 0.471 ± 0.21
10 | LPLEERVTHFRDMLLERGVSARSTWEKELHKIVFDPRYLLLNSEERKQIFEQFVKTR [F22R] | -0.155 ± 0.1
11 | LPLEERVTHFRDMLLERGVSAVSTWEKELHKIVFDPRYLLLNSEERKQIFEQFVKTR [F22V] | -0.439 ± 0.12
12 | LPLEERVTHFRDMLLERGVSAMSTWEKELHKIVFDPRYLLLNSEERKQIFEQFVKTR [F22M] | -0.431 ± 0.45
13 | LPLEERVTHFRDMLLERGVSAQSTWEKELHKIVFDPRYLLLNSEERKQIFEQFVKTR [F22Q] | 0.199 ± 0.1
14 | LPLEERVTHFRDMLLERGVSAPSTWEKELHKIVFDPRYLLLNSEERKQIFEQFVKTR [F22P] | -0.48 ± 0.28
15 | LPLEERVTHFRDMLLERGVSATSTWEKELHKIVFDPRYLLLNSEERKQIFEQFVKTR [F22T] | 0.048 ± 0.14
16 | LPLEERVTHFRDMLLERGVSASSTWEKELHKIVFDPRYLLLNSEERKQIFEQFVKTR [F22S] | 0.063 ± 0.092
17 | LPLEERVTHFRDMLLERGVSALSTWEKELHKIVFDPRYLLLNSEERKQIFEQFVKTR [F22L] | -0.045 ± 0.14
18 | LPLEERVTHFRDMLLERGVSAISTWEKELHKIVFDPRYLLLNSEERKQIFEQFVKTR [F22I] | -0.797 ± 0.33
19 | LPLEERVTHFRDMLLERGVSAYSTWEKELHKIVFDPRYLLLNSEERKQIFEQFVKTR [F22Y] | -0.031 ± 0.088
20 | LPLEERVTHFRDMLLERGVSACSTWEKELHKIVFDPRYLLLNSEERKQIFEQFVKTR [F22C] | 0.078 ± 0.12
21 | LPLEERVTHFRDMLLERGVSADSTWEKELHKIVFDPRYLLLNSEERKQIFEQFVKTR [F22D] | 0.292 ± 0.082
22 | LPLEERVTHFRDMLLERGVRAFSTWEKELHKIVFDPRYLLLNSEERKQIFEQFVKTR [S20R] | -1 ± 0.38
23 | LPLEERVTHFRDMLLERGVVAFSTWEKELHKIVFDPRYLLLNSEERKQIFEQFVKTR [S20V] | -0.691 ± 0.25
24 | LPLEERVTHFRDMLLERGVCAFSTWEKELHKIVFDPRYLLLNSEERKQIFEQFVKTR [S20C] | -0.169 ± 0.25

Row | Variant | abundance fitness
25 | LPLEERVTHFRDMLLERGVFAFSTWEKELHKIVFDPRYLLLNSEERKQIFEQFVKTR [S20F] | -0.523 ± 0.14
26 | LPLEERVTHFRDMLLERGVAAFSTWEKELHKIVFDPRYLLLNSEERKQIFEQFVKTR [S20A] | -0.369 ± 0.16
27 | LPLEERVTHFRDMLLERGVTAFSTWEKELHKIVFDPRYLLLNSEERKQIFEQFVKTR [S20T] | -0.38 ± 0.33
28 | LPLEERVTHFRDMLLERGVNAFSTWEKELHKIVFDPRYLLLNSEERKQIFEQFVKTR [S20N] | 0.589 ± 0.17
29 | LPLEERVTHFRDMLLERGVPAFSTWEKELHKIVFDPRYLLLNSEERKQIFEQFVKTR [S20P] | -0.535 ± 0.45
30 | LPLEERVTHFRDMLLERGVDAFSTWEKELHKIVFDPRYLLLNSEERKQIFEQFVKTR [S20D] | -0.185 ± 0.22
31 | LPLEERVTHFRDMLLERGVGAFSTWEKELHKIVFDPRYLLLNSEERKQIFEQFVKTR [S20G] | -0.283 ± 0.1
32 | LPLEERVTHFRDMLLERGVWAFSTWEKELHKIVFDPRYLLLNSEERKQIFEQFVKTR [S20W] | -0.371 ± 0.18
33 | LPLEERVTHFRDMLLERGVLAFSTWEKELHKIVFDPRYLLLNSEERKQIFEQFVKTR [S20L] | -0.594 ± 0.22
34 | LPLEERVTHFRDMLLERGVEAFSTWEKELHKIVFDPRYLLLNSEERKQIFEQFVKTR [S20E] | -0.563 ± 0.23
35 | LPLEERVTHFRDMLLERGVSAFSLWEKELHKIVFDPRYLLLNSEERKQIFEQFVKTR [T24L] | -0.559 ± 0.18
36 | LPLEERVTHFRDMLLERGVSAFSAWEKELHKIVFDPRYLLLNSEERKQIFEQFVKTR [T24A] | -0.561 ± 0.27
37 | LPLEERVTHFRDMLLERGVSAFSPWEKELHKIVFDPRYLLLNSEERKQIFEQFVKTR [T24P] | -0.571 ± 0.21
38 | LPLEERVTHFRDMLLERGVSAFSRWEKELHKIVFDPRYLLLNSEERKQIFEQFVKTR [T24R] | -0.701 ± 0.21
39 | LPLEERVTHFRDMLLERGVSAFSGWEKELHKIVFDPRYLLLNSEERKQIFEQFVKTR [T24G] | -0.662 ± 0.13
40 | LPLEERVTHFRDMLLERGVSAFSQWEKELHKIVFDPRYLLLNSEERKQIFEQFVKTR [T24Q] | -0.503 ± 0.46
41 | LPLEERVTHFRDMLLERGVSAFSIWEKELHKIVFDPRYLLLNSEERKQIFEQFVKTR [T24I] | -0.692 ± 0.24
42 | LPLEERVTHFRDMLLERGVSAFSHWEKELHKIVFDPRYLLLNSEERKQIFEQFVKTR [T24H] | -0.361 ± 0.38
43 | LPLEERVTHFRDMLLERGVSAFSVWEKELHKIVFDPRYLLLNSEERKQIFEQFVKTR [T24V] | -0.59 ± 0.12
44 | LPLEERVTHFRDMLLERGVSAFSCWEKELHKIVFDPRYLLLNSEERKQIFEQFVKTR [T24C] | 0.197 ± 0.41
45 | LPLEERVTHFRDMLLERGVSAFSSWEKELHKIVFDPRYLLLNSEERKQIFEQFVKTR [T24S] | -0.237 ± 0.082
46 | LPLEERVTHFRDMLLERGVSAFRTWEKELHKIVFDPRYLLLNSEERKQIFEQFVKTR [S23R] | -0.811 ± 0.25
47 | LPLEERVTHFRDMLLERGVSAFGTWEKELHKIVFDPRYLLLNSEERKQIFEQFVKTR [S23G] | -0.353 ± 0.47
